Test results as given in article PMC3898117 (Biochemical Journal, 2013).

Molecular target: recombinant RNMT (RNA guanine-7 methyltransferase) (UniProt O43148 1-476)
Assay: cell-based or functional assay

recombinant RNMT (RNA guanine-7 methyltransferase), sequence (O43148 whole entry): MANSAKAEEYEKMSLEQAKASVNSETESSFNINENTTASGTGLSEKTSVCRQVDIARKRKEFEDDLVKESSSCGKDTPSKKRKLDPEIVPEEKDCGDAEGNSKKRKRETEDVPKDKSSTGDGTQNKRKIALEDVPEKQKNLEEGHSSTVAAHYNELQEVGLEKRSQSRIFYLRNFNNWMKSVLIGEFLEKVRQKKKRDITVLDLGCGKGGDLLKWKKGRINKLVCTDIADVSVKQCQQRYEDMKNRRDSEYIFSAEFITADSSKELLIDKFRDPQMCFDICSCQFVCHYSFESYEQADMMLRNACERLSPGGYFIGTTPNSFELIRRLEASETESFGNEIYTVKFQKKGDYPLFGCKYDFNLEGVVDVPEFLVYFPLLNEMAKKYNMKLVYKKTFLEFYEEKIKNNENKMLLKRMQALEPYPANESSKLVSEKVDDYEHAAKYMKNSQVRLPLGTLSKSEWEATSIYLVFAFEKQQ

B1: GST–RAM 1–55 (domain or fragment, human, UniProt Q9BTL3 1-55, looked up)
chain: MTDTAEAVPKFEEMFASRFTENDKEYQEYLKRPPESPPIVEEWNSRAGGNQRNRG
In the case of B1, the “in vitro cap methyltransferase activity of 15 nM RNMT pre-incubated with 15 nM GST–RAM 1–55, compared with GST control” value is reported as greater than 5 fold.
